Assay results published in patent US20230243822A1, “MOLECULAR DISEASE PROFILE AND USE THEREOF FOR MONITORING AND TREATING RHEUMATAOID ARTHRITIS” (JANSSEN BIOTECH, INC., priority 2020, published 2023).

Test system: 14-analyte M-DP panel
Experiment: Pharmacodynamic M-DP score, 14-analyte panel (SomaLogic SOMAscan), clinical studies in RA
Format: in vivo, human
Settings: for M-DP score mean difference ± SD, Good vs. No / M-DP score mean ± SD, DAS28-CRP response group Good / M-DP score mean ± SD, DAS28-CRP response group Moderate / M-DP score mean ± SD, DAS28-CRP response group No: response at week 24
Source text: Serum samples and data from eight interventional clinical studies with seven different active treatments for RA or placebo treatment were obtained and analyzed: sirukumab (anti-IL-6) and placebo treatments in SIRROUND-M (NCT01689532; Takeuchi T, et al. Arthritis Res Ther. 2018 Mar. 7; 20(1): 42), SIRROUND-D (NCT01604343; Takeuchi T, et al. Ann Rheum Dis. 2017 Dec.; 76(12): 2001-2008), and SIRROUND-T (NCT01606761; Aletaha D, et al. Lancet. 2017 Mar. 25; 389(10075): 1206-1217); sirukumab and adalimumab (anti-TNF-alpha) treatments in SIRROUND-H (NCT02019472; Taylor PC, et al. Ann Rheum Dis. 2018 May; 77(5): 658-666); golimumab (anti-TNF-alpha) treatment in GO-FURTHER (NCT00973479; Weinblatt ME, et al. Ann Rheum Dis. 2013 March; 72(3): 381-9); guselkumab (anti-IL-23p19), ustekinumab (anti-IL-12/IL-23p40), and placebo treatments in CNTO1275ARA2001 (NCT01645280; Cox JD, et al. […]); JNJ-40346527 (colony-stimulating factor-1 inhibitor) and placebo treatments in 40346527ARA2001 (NCT01597739; Genovese MC, et al. J Rheumatol. 2015 October; 42(10): 1752-60). Plasma samples were obtained from the RA-MAP TACERA study (Cope AP, et al. Nat Rev Rheumatol. 2018 January; 14(1): 53-60) before (baseline) and 6-months after initiation of conventional synthetic disease-modifying anti-rheumatic drugs (csDMARDs). Details of treatment dose groups, concomitant methotrexate use, and previous experience with csDMARDs and biologics are reported in Table 1. The studies were conducted in accordance with the Declaration of Helsinki. The study protocols were reviewed and approved by an independent ethics committee or institutional review board for each study center. Written informed consent was obtained from all patients before study entry. Additional study details and patient characteristics are available in the referenced publications for each study. For SIRROUND-D and SIRROUND-T studies, sets of serum samples from demographically-matched healthy controls were obtained from commercial sources (BioIVT, Westbury, N.Y.).
Serum samples from baseline (week 0) and the time points indicated in Table 1 were provided for quantification of 1189 serum analytes using the SomaScan v3.1 platform (SomaLogic, Boulder, Colo.; www.somalogic.com), with the exception of RA-MAP TACERA, for which plasma samples were analyzed for 1301 analytes using the SomaScan v3.2 platform. For some studies, a redacted dataset reporting data for a subset of the analytes was obtained. Relative fluorescence unit (RFU) data were sequentially normalized for hybridization controls (internal standards per samples), median signal across all samples (assumes same total protein concentration across sample set), and calibration controls (common sample standards across analysis plates). Samples failed quality control standards defined by Somalogic were excluded from analyses. The normalized RFU values were log2-transformed for subsequent analyses.
Changes in analyte expression levels were calculated for individual samples as the log2 transform of the ratio of the analyte level at the indicated time point (visit level) over the analyte level at baseline (baseline level) for a given subject, i.e., log 2(visit level/baseline level). Changes in RA disease-associated analytes per sample were summarized using a pharmacodynamic (PD) molecular disease profile (M-DP) score, defined as the median value of the log 2(visit level/baseline level) values for analytes in the defined M-DP analyte set. […] PD M-DP scores in the log 2(visit level/baseline level) scale can be transformed to percent change from baseline, using the transformation: (2^M-DP score−1)×100%.
Statistical analyses were performed on log2-transformed data, for either normalized Relative fluorescence unit (RFU) datasets or within-subject fold/baseline datasets. Significance of differences between groups was evaluated using General Linear Models, with t-tests when comparing two groups. […]

[1] = SIRROUND-D, score at week 4, sirukumab SC 50 mg q4w
[2] = SIRROUND-D, score at week 4, sirukumab SC 100 mg q2w
[3] = SIRROUND-D, score at week 24, sirukumab SC 50 mg q4w
[4] = SIRROUND-D, score at week 24, sirukumab SC 100 mg q2w
[5] = SIRROUND-H, score at week 4, sirukumab SC 50 mg q4w or adalimumab SC 40 mg q2w
[6] = SIRROUND-M, score at week 4, sirukumab SC 50 mg q4w
[7] = SIRROUND-M, score at week 4, sirukumab SC 100 mg q2w
[8] = SIRROUND-T, score at week 4, sirukumab SC 50 mg q4w
[9] = SIRROUND-T, score at week 4, sirukumab SC 100 mg q2w
[10] = SIRROUND-T, score at week 24, sirukumab SC 50 mg q4w
[11] = SIRROUND-T, score at week 24, sirukumab SC 100 mg q2w

B1: Sirukumab (antibody, chains of the INN, looked up, V domains shown)
VH: EVQLVESGGGLVQPGGSLRLSCAASGFTFSPFAMSWVRQAPGKGLEWVAKISPGGSWTYYSDTVTGRFTISRDNAKNSLYLQMNSLRAEDTAVYYCARQLWGYYALDIWGQGTTVTVSS
VL: EIVLTQSPATLSLSPGERATLSCSASISVSYMYWYQQKPGQAPRLLIYDMSNLASGIPARFSGSGSGTDFTLTISSLEPEDFAVYYCMQWSGYPYTFGGGTKVEIK
notes: a human anti-interleukin-6 (IL-6) monoclonal antibody
With B1 the “M-DP score mean ± SD, All treated” value [1] was −0.42 ± 0.34 log2 (fold/baseline), the “M-DP score mean ± SD, All treated” value (SIRROUND-D, score at week 4, sirukumab SC 50 mg q4w, listed as sirukumab) was -0.42±0.34 log2 (fold/baseline) and the “M-DP score mean difference ± SD, Good vs. No” value [1] was −0.08 ± 0.33 log2 (fold/baseline). The “M-DP score mean ± SD, DAS28-CRP response group Good” value [1] was −0.44 ± 0.32 log2 (fold/baseline), the “M-DP score mean ± SD, DAS28-CRP response group Moderate” value [1] was −0.43 ± 0.36 log2 (fold/baseline) and the “M-DP score mean ± SD, DAS28-CRP response group No” value [1] was −0.36 ± 0.35 [44]+ log2 (fold/baseline). The “M-DP score mean ± SD, All treated” value [2] was −0.48 ± 0.30 log2 (fold/baseline), the “M-DP score mean ± SD, All treated” value (SIRROUND-D, score at week 4, sirukumab SC 100 mg q2w, listed as sirukumab) was -0.48±0.30 log2 (fold/baseline) and the “M-DP score mean difference ± SD, Good vs. No” value [2] was −0.27 ± 0.30 log2 (fold/baseline). The “M-DP score mean ± SD, DAS28-CRP response group Good” value [2] was −0.50 ± 0.29 log2 (fold/baseline), the “M-DP score mean ± SD, DAS28-CRP response group Moderate” value [2] was −0.51 ± 0.30 log2 (fold/baseline) and the “M-DP score mean ± SD, DAS28-CRP response group No” value [2] was −0.33 ± 0.32 [28]+ log2 (fold/baseline). For the same molecule, the “M-DP score mean ± SD, All treated” value [3] was −0.61 ± 0.40 log2 (fold/baseline), the “M-DP score mean ± SD, DAS28-CRP response group Good” value [3] was −0.65 ± 0.39 log2 (fold/baseline) and the “M-DP score mean ± SD, DAS28-CRP response group Moderate” value [3] was −0.59 ± 0.39 log2 (fold/baseline). For the same molecule, the “M-DP score mean ± SD, DAS28-CRP response group No” value [3] was 0.06 ± 0.00 [1] log2 (fold/baseline), the “M-DP score mean ± SD, All treated” value [4] was −0.69 ± 0.31 log2 (fold/baseline) and the “M-DP score mean ± SD, DAS28-CRP response group Good” value [4] was −0.69 ± 0.34 log2 (fold/baseline). The “M-DP score mean ± SD, DAS28-CRP response group Moderate” value [4] was −0.75 ± 0.20 log2 (fold/baseline), the “M-DP score mean ± SD, DAS28-CRP response group No” value [4] was −0.52 ± 0.37 [2] log2 (fold/baseline) and the “M-DP score GMean decrease from baseline” value (SIRROUND-D, week 4, sirukumab 50 mg q4w) was 21%. The “M-DP score GMean decrease from baseline” value (SIRROUND-D, week 4, sirukumab 100 mg q2w) was 25%, the “M-DP score mean ± SD, All treated” value [5] was −0.41 ± 0.30 log2 (fold/baseline) and the “M-DP score mean difference ± SD, Good vs. No” value [5] was −0.07 ± 0.30 log2 (fold/baseline). For the same molecule, the “M-DP score mean ± SD, DAS28-CRP response group Good” value [5] was −0.45 ± 0.33 log2 (fold/baseline), the “M-DP score mean ± SD, DAS28-CRP response group Moderate” value [5] was −0.40 ± 0.30 log2 (fold/baseline) and the “M-DP score mean ± SD, DAS28-CRP response group No” value [5] was −0.38 ± 0.22 [12]+ log2 (fold/baseline). For the same molecule, the “M-DP score mean ± SD, All treated” value [6] was −0.51 ± 0.37 log2 (fold/baseline), the “M-DP score mean difference ± SD, Good vs. No” value [6] was −0.40 ± 0.37 log2 (fold/baseline) and the “M-DP score mean ± SD, DAS28-CRP response group Good” value [6] was −0.59 ± 0.38 log2 (fold/baseline). The “M-DP score mean ± SD, DAS28-CRP response group Moderate” value [6] was −0.46 ± 0.30 log2 (fold/baseline), the “M-DP score mean ± SD, DAS28-CRP response group No” value [6] was −0.19 ± 0.25 [7] log2 (fold/baseline) and the “M-DP score mean ± SD, All treated” value [7] was −0.59 ± 0.29 log2 (fold/baseline). The “M-DP score mean ± SD, DAS28-CRP response group Good” value [7] was −0.55 ± 0.27 log2 (fold/baseline), the “M-DP score mean ± SD, DAS28-CRP response group Moderate” value [7] was −0.70 ± 0.34 log2 (fold/baseline) and the “M-DP score mean ± SD, DAS28-CRP response group No” value [7] was −0.51 ± 0.10 [2] log2 (fold/baseline). For the same molecule, the “M-DP score mean ± SD, All treated” value [8] was −0.34 ± 0.28 log2 (fold/baseline), the “M-DP score mean difference ± SD, Good vs. No” value [8] was −0.06 ± 0.29 log2 (fold/baseline) and the “M-DP score mean ± SD, DAS28-CRP response group Good” value [8] was −0.35 ± 0.30 log2 (fold/baseline). The “M-DP score mean ± SD, DAS28-CRP response group Moderate” value [8] was −0.37 ± 0.26 log2 (fold/baseline), the “M-DP score mean ± SD, DAS28-CRP response group No” value [8] was −0.29 ± 0.26 [30]+ log2 (fold/baseline) and the “M-DP score mean ± SD, All treated” value [9] was −0.49 ± 0.35 log2 (fold/baseline). The “M-DP score mean difference ± SD, Good vs. No” value [9] was −0.20 ± 0.34 log2 (fold/baseline), the “M-DP score mean ± SD, DAS28-CRP response group Good” value [9] was −0.55 ± 0.35 log2 (fold/baseline) and the “M-DP score mean ± SD, DAS28-CRP response group Moderate” value [9] was −0.54 ± 0.35 log2 (fold/baseline). The “M-DP score mean ± SD, DAS28-CRP response group No” value [9] was −0.35 ± 0.33 [39]+ log2 (fold/baseline), the “M-DP score mean ± SD, All treated” value [10] was −0.41 ± 0.33 log2 (fold/baseline) and the “M-DP score mean difference ± SD, Good vs. No” value [10] was −0.12 ± 0.34 log2 (fold/baseline). For the same molecule, the “M-DP score mean ± SD, DAS28-CRP response group Good” value [10] was −0.46 ± 0.35 log2 (fold/baseline), the “M-DP score mean ± SD, DAS28-CRP response group Moderate” value [10] was −0.41 ± 0.29 log2 (fold/baseline) and the “M-DP score mean ± SD, DAS28-CRP response group No” value [10] was −0.34 ± 0.31 [31]+ log2 (fold/baseline). For the same molecule, the “M-DP score mean ± SD, All treated” value [11] was −0.53 ± 0.36 log2 (fold/baseline), the “M-DP score mean difference ± SD, Good vs. No” value [11] was −0.18 ± 0.35 log2 (fold/baseline) and the “M-DP score mean ± SD, DAS28-CRP response group Good” value [11] was −0.59 ± 0.38 log2 (fold/baseline). For the same molecule, the “M-DP score mean ± SD, DAS28-CRP response group Moderate” value [11] was −0.54 ± 0.37 log2 (fold/baseline), the “M-DP score mean ± SD, DAS28-CRP response group No” value [11] was −0.41 ± 0.28 [40]+ log2 (fold/baseline) and the “M-DP score GMean decrease from baseline” value (SIRROUND-T, week 4, sirukumab 50 mg q4w) was 22%. For the same molecule, the “M-DP score GMean decrease from baseline” value (SIRROUND-T, week 4, sirukumab 100 mg q2w) was 29%.
